Measurements from patent US20110152352, “SMAD PROTEINS CONTROL DROSHA-MEDIATED MIRNA MATURATION” (Tufts University, published 2011).

Columns and labels:
[1] = target: T1, Smad1 full length (UniProt Q15797 Q15797:1-465); assay: pulldown; excess yeast tRNA; details: tags: GST fusion, E. coli
Procedure: (§1) To examine the interaction of SMAD proteins with double stranded CAGAC sequences of miRNA we performed RNA pull down experiments. Gst-Smad fusion proteins were expressed in E. coli and partially purified. As a proof of principal, we used mature miR-21 sequences (see below). ssRNA oligonucleotides were annealed to make dsRNA. GST-Pull down experiments were performed using the standard methods including aspects of those disclosed herein in the presence of excess amount of non-specific RNAa (yeast tRNAs). Full length GST-SMAD1 fusion protein and a GST-SMAD1 N-terminal (n219) MH1 domain interact with double stranded CAGAC sequences of miR-21
(§2) In vitro GST-SMAD-RNA pull down assay: GST-smad fusion proteins were expressed in E. coli, isolated and bound to glutathione S-sepharose beads. Following partial purification, Smad bound beads were washed 4×5 min at 4° C. in wash buffer (10 mM Tris-HCl pH 7.6, 0.5M LiCl, 0.1% triton) and 1×10 at 4° C. in binding buffer (20 mM Tris-HCl pH 7.6, 0.1M KCl, 0.1% Tween-20, 0.1% Triton). […] RNA was re-suspended in 20 μl water and 1 μl was used in a reverse transcriptase reaction followed by quantitative real time PCR to detect relative levels of RNA binding to Smad-GST fusion proteins.

[2] = target: T2, Smad1 MH1 domain (UniProt Q15797 Q15797:1-219); assay: pulldown; excess yeast tRNA; details: tags: GST fusion, E. coli
T2 sequence (Q15797 1-219, one chain of several): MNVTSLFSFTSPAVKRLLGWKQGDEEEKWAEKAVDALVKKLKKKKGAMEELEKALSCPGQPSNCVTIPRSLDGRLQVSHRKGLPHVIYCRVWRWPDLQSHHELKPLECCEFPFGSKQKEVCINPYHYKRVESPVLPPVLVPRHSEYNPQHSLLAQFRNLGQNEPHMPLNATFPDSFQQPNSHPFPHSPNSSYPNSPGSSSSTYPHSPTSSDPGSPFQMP
Procedure: as §1, §2

[3] = target: T1, Smad1 full length; assay: pulldown; control duplex without CAGAC; details: tags: GST fusion, E. coli
Procedure: (§3) In vitro GST-SMAD-RNA pull down assay: GST-smad fusion proteins were expressed in E. coli, isolated and bound to glutathione S-sepharose beads. Following partial purification, Smad bound beads were washed 4×5 min at 4° C. in wash buffer (10 mM Tris-HCl pH 7.6, 0.5M LiCl, 0.1% triton) and 1×10 at 4° C. in binding buffer (20 mM Tris-HCl pH 7.6, 0.1M KCl, 0.1% Tween-20, 0.1% Triton). Beads were resuspended in 100 ul binding buffer and pre-incubated with 25 ug tRNA, 1 ng poly-[dI-dC] and 2 μl RNAse inhibitor for 10 minutes before the addition of 10 pmoles synthesized mature miRNA or ˜20 pmoles in vitro transcribed 156 by pri-miR-21. Following 1 hr incubation with rocking at 4° C., beads were washed 4× with binding buffer. 2 consecutive elutions of bound RNA were performed by addition of 100 ul Elution buffer (1% SDS, 0.15M NaCl) followed by rocking at room temperature for 15 min. The eluates were combined, […] Trizol-LS (Invitrogen) was added and the RNA was purified as usual. RNA was re-suspended in 20 μl water and 1 μl was used in a reverse transcriptase reaction followed by quantitative real time PCR to detect relative levels of RNA binding to Smad-GST fusion proteins.

[4] = target: T3, Smad3 full length (UniProt P84022 P84022:1-425); assay: pulldown; control duplex without CAGAC; details: tags: GST fusion, E. coli
T3 sequence (P84022 whole entry, the tested form may be a part, one chain of several): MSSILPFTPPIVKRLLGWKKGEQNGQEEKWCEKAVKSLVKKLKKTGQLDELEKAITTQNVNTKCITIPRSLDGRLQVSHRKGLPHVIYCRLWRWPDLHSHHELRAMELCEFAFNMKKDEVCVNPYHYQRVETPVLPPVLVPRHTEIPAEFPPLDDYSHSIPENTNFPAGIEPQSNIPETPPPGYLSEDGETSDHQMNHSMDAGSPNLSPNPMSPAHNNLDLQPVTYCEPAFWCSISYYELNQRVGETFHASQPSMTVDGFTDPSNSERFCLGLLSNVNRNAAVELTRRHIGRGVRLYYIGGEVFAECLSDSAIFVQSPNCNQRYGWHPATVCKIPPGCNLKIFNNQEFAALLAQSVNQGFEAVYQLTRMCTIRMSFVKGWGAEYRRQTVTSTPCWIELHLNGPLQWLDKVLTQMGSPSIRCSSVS
Procedure: as §3

[5] = target: T2, Smad1 MH1 domain; assay: pulldown; specific for miR-21 duplex; details: tags: GST fusion, E. coli
Procedure: as §3

[6] = target: Smad4 full length (UniProt Q13485 Q13485:1-552); assay: pulldown; details: tags: GST fusion, E. coli
Sequence of Smad4 full length (Q13485 whole entry, the tested form may be a part, one chain of several): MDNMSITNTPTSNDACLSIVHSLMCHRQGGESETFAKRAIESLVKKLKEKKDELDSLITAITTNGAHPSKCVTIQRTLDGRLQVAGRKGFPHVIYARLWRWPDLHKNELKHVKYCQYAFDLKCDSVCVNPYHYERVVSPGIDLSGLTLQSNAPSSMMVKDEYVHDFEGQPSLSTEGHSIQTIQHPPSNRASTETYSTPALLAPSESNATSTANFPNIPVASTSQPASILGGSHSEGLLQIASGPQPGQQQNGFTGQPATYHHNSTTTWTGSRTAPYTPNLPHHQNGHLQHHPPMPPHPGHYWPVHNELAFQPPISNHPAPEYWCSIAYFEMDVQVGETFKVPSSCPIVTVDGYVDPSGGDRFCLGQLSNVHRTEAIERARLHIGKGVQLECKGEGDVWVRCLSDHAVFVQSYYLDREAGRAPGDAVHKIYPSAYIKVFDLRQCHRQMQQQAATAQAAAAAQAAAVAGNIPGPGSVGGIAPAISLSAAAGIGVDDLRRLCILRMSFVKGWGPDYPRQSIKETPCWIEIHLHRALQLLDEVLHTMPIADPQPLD
Procedure: as §3

[7] = target: T1, Smad1 full length; assay: pulldown; tRNA and poly dI-dC, 0.1 M KCl, 4 C; details: tags: GST fusion, E. coli
Procedure: as §3

[8] = target: T3, Smad3 full length; assay: pulldown; details: tags: GST fusion, E. coli
Procedure: as §3

[9] = target: T2, Smad1 MH1 domain; assay: pulldown; MH1 sufficient; details: tags: GST fusion, E. coli
Procedure: as §3

[10] = target: Smad1 (UniProt Q15797 Q15797:1-465); assay: RNA-ChIP; details: tags: Flag, Cos7; hairpin with flanks
Sequence of Smad1 (Q15797 whole entry, one chain of several): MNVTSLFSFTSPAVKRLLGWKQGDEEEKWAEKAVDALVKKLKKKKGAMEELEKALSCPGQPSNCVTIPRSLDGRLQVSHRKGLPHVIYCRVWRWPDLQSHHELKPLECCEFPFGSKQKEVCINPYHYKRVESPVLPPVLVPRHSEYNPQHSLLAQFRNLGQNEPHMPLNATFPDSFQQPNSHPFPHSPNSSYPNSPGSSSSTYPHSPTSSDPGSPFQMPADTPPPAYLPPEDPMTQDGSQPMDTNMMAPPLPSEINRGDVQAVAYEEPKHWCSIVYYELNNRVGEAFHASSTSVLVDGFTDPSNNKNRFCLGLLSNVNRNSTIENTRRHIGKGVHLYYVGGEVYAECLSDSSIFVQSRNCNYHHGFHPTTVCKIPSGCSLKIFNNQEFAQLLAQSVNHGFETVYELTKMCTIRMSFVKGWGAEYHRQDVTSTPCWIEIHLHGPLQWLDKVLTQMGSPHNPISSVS
Procedure: RNA-ChIP. Was performed as previously described [Fukuda, T. et al., Nat Cell Biol 9, 604-611 (2007)]. Briefly, PASMCs or Cos7 cells were crosslinked for 15 minutes with 1% formaldehyde, the cell pellet was resuspended in Buffer A (5 mM PIPES, pH 8.0, 85 mM KCl, 0.5% Nonidet P-40). After 10 min on ice, the crude nuclei fraction was isolated by centrifugation, and then suspended in Buffer B (1% SDS, 10 mM EDTA, 50 mM Tris-HCl, pH 8.1). After nuclei were disrupted by sonication, the lysates were cleared and subjected to immunoprecipitation with anti-Flag, anti-Smad1/5/8, Smad2/3, or p68 antibody, prior to stringent washing, and elution. The RNA was isolated using Trizol (invitrogen). Pellets were resuspended in 100 μl TE and incubated with DNase I (10 U) for 30 min at 37° C. to remove any remaining DNA. Following extraction with phenol:chloroform (5:1), RNA was precipitated with ethanol and dissolved in 20 μl of water. […] of RNA was used for a 20 μl cDNA synthesis reaction. Quantitative PCR reactions were then performed by real-time PCR machine (iQ5, Bio-Rad). Average of three experiments each performed in triplicate with standard errors are presented.

T1 sequence (Q15797 whole entry, the tested form may be a part, one chain of several): as the sequence (Q15797 whole entry, one chain of several) above

B1: miR-21 duplex (annealed oligos) (dsRNA)
RNA 1: UAGCUUAUCAGACUGAUGUUGA
RNA 2: UCAACAUCAGUCUGAUAAGCUA
B1: binds [1]; binds [2].

B2: cel-miR-67 RNA duplex (dsRNA)
RNA 1: UCACAACCUCCUAGAAAGAGUAGA
RNA 2: UCUACUCUUUCUAGGAGGUUGUGA
B2: no binding [3]; no binding [4]; no binding [5]. B2: no binding [6].

B3: miR-21 RNA duplex (dsRNA)
RNA 1: UAGCUUAUCAGACUGAUGUUGA
RNA 2: UCAACAUCAGUCUGAUAAGCUA
B3: binds [7]; no binding [6]; binds [8]. B3: binds [9].

B4: pri-miR-21 from pCMV-miR-21 (480 nt; hairpin sequence given) (ssRNA)
RNA: UGUCGGGUAGCUUAUCAGACUGAUGUUGACUGUUGAAUCUCAUGGCAACACCAGUCGAUGGGCUGUCUGACA
B4 gave a binding signal [10] of 3 fold induction by BMP4.
